Assay results as given in patent US20220177604A1.
Residue numbers refer to the chain shown, from its start.

B1: 13E4-hIgG1-ABDEG (antibody, V domains shown)
VH: ELQLVESGGGLVQPGGSLRLSCAASGFTFSSYVMSWVRQAPGKGLEWVSSIYHDGSHTYYADFVKGRFTISRDNAKNTLYLQMNSLKSEDTAVYYCASGTSYSGSYYYTDPFFGSWGQGTQVTVSS
VL: HSAVTQPSALSVTLGQTAKITCQGGSLGSNYAYWYQQKPGQAPVLVIYDDDSRPSGIPERFSGSSSGGTATLTISGAQAEDEGDYYCQSADSNGNAVFGGGTHLTVL
B2: 18E2His2-hIgG1-ABDEG (antibody, V domains shown)
VH: B1 VH with E1Q, S35H
VL: NFMLTQPSALSVTLGQTARITCQGDRLGSRYIHWYQQKPPQAPVLVIHDDDRRPSGIPERFSGSSSGGTATLTISGAQAEDDGDYYCQSADSSGNPVFGGGTHLTVL
B3: CL-2C mAb 1 (antibody, V domains shown)
VH: QVQLVQSGAEVMKPGSSVKVSCKASGYTFSWYWLEWVRQAPGHGLEWMGEIDPGTFTTHYNEKFKARVTFTADTSTSTAYMELSSLRSEDTAVYYCARFSHFSGSHYDYFDYWGQGTLVTVSS
VL: EIVMTQSPATLSVSPGERATLSCRASQHIGTNIHWYQQKPGQAPRLLIYYASESISGIPARFSGSGSGTEFTLTISSLQSEDFAVYYCQQSWSHPTTFGGGTKVEIK
B4: CL-2C mAb 35 (antibody, V domains shown)
VH: B3 VH with H59N, H106N
VL: B3 VL with H28S
B5: CL-2C mAb 32 (antibody, V domains shown)
VH: B3 VH with W33H, H59N, H106N, Y107H
VL: B3 VL with H28S
B6: CL-2C mAb 33 (antibody, V domains shown)
VH: B3 VH with W33H, H59N
VL: B3 VL with H28S
B7: CL-2C mAb 14 (antibody, V domains shown)
VH: B3 VH with W33H, H59N, S105H, H106N
VL: B3 VL with H28S, Y50H
B8: CL-2C mAb 26 (antibody, V domains shown)
VH: B3 VH
VL: B3 VL with H28S, Y50H, H94W
B9: CL-2C mAb 3 (antibody, V domains shown)
VH: B3 VH with W33H, H59N
VL: B3 VL
B10: CL-2C mAb 9 (antibody, V domains shown)
VH: B3 VH with W33H, H59N, S105H, H106N
VL: B3 VL with H28S, Y50H, Q89H, W92D, H94W
B11: CL-2C mAb 30 (antibody, V domains shown)
VH: B3 VH with H59N, H106N
VL: B3 VL with H28S, Y50H, H94W
B12: CL-2C mAb 39 (antibody, V domains shown)
VH: B3 VH with W33H, H59N, S105H, H106N
VL: B3 VL with H28S, H94W
B13: CL-2C mAb 2 (antibody, V domains shown)
VH: B3 VH with W33H, H59N, H106N, Y107H
VL: B3 VL
B14: CL-2C mAb 15 (antibody, V domains shown)
VH: B3 VH with H59N, H106N
VL: B3 VL with H28S, Y50H
B15: CL-2C mAb 10 (antibody, V domains shown)
VH: B3 VH with H59N, H106N
VL: B3 VL with H28S, Y50H, Q89H, W92D, H94W
B16: CL-2C mAb 19 (antibody, V domains shown)
VH: B3 VH with W33H, H59N, S105H, H106N
VL: B3 VL with H28S, Y50H, W92D
B17: CL-2C mAb 11 (antibody, V domains shown)
VH: B3 VH
VL: B3 VL with H28S, Y50H
B18: CL-2C mAb 16 (antibody, V domains shown)
VH: B3 VH
VL: B3 VL with H28S, Y50H, W92D
B19: CL-2C mAb 34 (antibody, V domains shown)
VH: B3 VH with W33H, H59N, S105H, H106N
VL: B3 VL with H28S
B20: CL-2C mAb 4 (antibody, V domains shown)
VH: B3 VH with W33H, H59N, S105H, H106N
VL: B3 VL
B21: CL-2C mAb 31 (antibody, V domains shown)
VH: B3 VH
VL: B3 VL with H28S
B22: CL-2C mAb 38 (antibody, V domains shown)
VH: B3 VH with W33H, H59N
VL: B3 VL with H28S, H94W
B23: CL-2C mAb 36 (antibody, V domains shown)
VH: B3 VH
VL: B3 VL with H28S, H94W
B24: CL-2C mAb 28 (antibody, V domains shown)
VH: B3 VH with W33H, H59N
VL: B3 VL with H28S, Y50H, H94W
B25: CL-2C mAb 18 (antibody, V domains shown)
VH: B3 VH with W33H, H59N
VL: B3 VL with H28S, Y50H, W92D
B26: CL-2C mAb 8 (antibody, V domains shown)
VH: B3 VH with W33H, H59N
VL: B3 VL with H28S, Y50H, Q89H, W92D, H94W
B27: CL-2C mAb 7 (antibody, V domains shown)
VH: B3 VH with W33H, H59N, H106N, Y107H
VL: B3 VL with H28S, Y50H, Q89H, W92D, H94W
B28: CL-2C mAb 6 (antibody, V domains shown)
VH: B3 VH
VL: B3 VL with H28S, Y50H, Q89H, W92D, H94W
B29: CL-2C mAb 12 (antibody, V domains shown)
VH: B3 VH with W33H, H59N, H106N, Y107H
VL: B3 VL with H28S, Y50H
B30: CL-2C mAb 29 (antibody, V domains shown)
VH: B3 VH with W33H, H59N, S105H, H106N
VL: B3 VL with H28S, Y50H, H94W
B31: CL-2C mAb 20 (antibody, V domains shown)
VH: B3 VH with H59N, H106N
VL: B3 VL with H28S, Y50H, W92D
B32: CL-2C mAb 5 (antibody, V domains shown)
VH: B3 VH with H59N, H106N
VL: B3 VL
B33: CL-2C mAb 17 (antibody, V domains shown)
VH: B3 VH with W33H, H59N, H106N, Y107H
VL: B3 VL with H28S, Y50H, W92D
B34: CL-2C mAb 27 (antibody, V domains shown)
VH: B3 VH with W33H, H59N, H106N, Y107H
VL: B3 VL with H28S, Y50H, H94W
B35: CL-2C mAb 40 (antibody, V domains shown)
VH: B3 VH with H59N, H106N
VL: B3 VL with H28S, H94W
B36: CL-2C mAb 13 (antibody, V domains shown)
VH: B3 VH with W33H, H59N
VL: B3 VL with H28S, Y50H
B37: 18E2VLHis-ABDEG (antibody, V domains shown)
VH: B1 VH with E1Q
VL: B2 VL
B38: 18E2VHHis-ABDEG (antibody, V domains shown)
VH: B1 VH with E1Q, S35H
VL: B2 VL with H33Y

target: human immunoglobulin E (hIgE) (human) (UniProt P01854); test: SPR competition, hIgE over hFcεRIα chip, pH 7.4
Sequence (P01854 whole entry): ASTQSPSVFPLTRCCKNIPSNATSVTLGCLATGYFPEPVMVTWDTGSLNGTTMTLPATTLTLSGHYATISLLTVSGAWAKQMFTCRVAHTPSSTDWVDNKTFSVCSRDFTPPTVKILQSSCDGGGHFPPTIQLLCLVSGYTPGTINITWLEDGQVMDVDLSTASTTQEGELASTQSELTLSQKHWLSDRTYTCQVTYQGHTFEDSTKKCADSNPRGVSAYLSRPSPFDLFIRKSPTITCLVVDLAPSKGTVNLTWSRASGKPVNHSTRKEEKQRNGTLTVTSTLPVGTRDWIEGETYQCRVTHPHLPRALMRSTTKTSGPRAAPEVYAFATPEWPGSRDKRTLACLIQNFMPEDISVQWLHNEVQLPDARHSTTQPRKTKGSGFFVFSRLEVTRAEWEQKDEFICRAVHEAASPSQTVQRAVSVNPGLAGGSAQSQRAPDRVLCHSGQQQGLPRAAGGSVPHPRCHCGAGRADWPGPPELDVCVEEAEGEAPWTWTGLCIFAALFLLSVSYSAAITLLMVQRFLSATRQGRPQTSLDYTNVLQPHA

Row | Binder | IC50 [µg/mL]
1 | B1 | 3
2 | B2 | 5.8

target: human immunoglobulin E (hIgE) (human) (UniProt P01854); test: flow cytometry: inhibition of human IgE binding to hFcεRIα+ bone-marrow-derived mast cells, residual IgE staining (MFI); table head on the sheet reads EC50, the text calls the values IC50; no unit in the table, x axis in µg/ml

Row | Binder | IC50 [µg/mL]
3 | B1 | 1.36
4 | B2 | 208

target: human immunoglobulin E (hIgE) (human) (UniProt P01854); test: competition ELISA, hIgE to coated hFcεRIα, pH 6

Row | Binder | IC50 [µg/mL]
5 | B1 | 0.0106
6 | B2 | 26.6

target: recombinant Motavizumab human IgE (rMota-hIgE) (human) (UniProt P01854); test: hIgE binding ELISA
Sequence (P01854 other isoform, or with tags, fused parts or gaps limits assumed, form in doubt): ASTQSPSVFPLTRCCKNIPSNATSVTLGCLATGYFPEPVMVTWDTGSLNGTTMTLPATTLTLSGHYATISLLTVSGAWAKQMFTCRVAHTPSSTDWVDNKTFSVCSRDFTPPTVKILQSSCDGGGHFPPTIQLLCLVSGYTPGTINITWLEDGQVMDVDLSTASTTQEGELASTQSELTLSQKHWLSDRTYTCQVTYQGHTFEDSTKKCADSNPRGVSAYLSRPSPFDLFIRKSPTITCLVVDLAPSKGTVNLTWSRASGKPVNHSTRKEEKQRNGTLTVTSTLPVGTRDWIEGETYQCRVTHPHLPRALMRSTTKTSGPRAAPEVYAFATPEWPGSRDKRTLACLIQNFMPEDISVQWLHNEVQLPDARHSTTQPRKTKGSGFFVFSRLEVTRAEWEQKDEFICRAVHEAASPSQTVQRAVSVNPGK

Row | Binder | Ratio OD450 pH 7.4/pH 6
7 | B3 | 6.94
8 | B4 | 0.69
9 | B5 | 4.13
10 | B6 | 2.61
11 | B7 | 1.53
12 | B8 | 44.6
13 | B9 | 6.44
14 | B10 | 1.45
15 | B11 | 14
16 | B12 | 7.59
17 | B13 | 7.11
18 | B14 | 4.07
19 | B15 | 2.77
20 | B16 | 1.04
21 | B17 | 5.9
22 | B18 | 2.24
23 | B19 | 5.5

Row | Binder | Ratio OD450 pH 7.4/pH 6
24 | B20 | 5.26
25 | B21 | 10.9
26 | B22 | 4.48
27 | B23 | 10.7
28 | B24 | 5.54
29 | B25 | 0.97
30 | B26 | 1.12
31 | B27 | 1.43
32 | B28 | 10.2
33 | B29 | 1.54
34 | B30 | 15.3
35 | B31 | 5.46
36 | B32 | 0.73
37 | B33 | 1.03
38 | B34 | 19.4
39 | B35 | 1
40 | B36 | 1.28

target: human IgE pre-bound on human basophils (human) (UniProt P01854); test: cell-based or functional assay
Sequence (P01854 whole entry, chain 1 of 2): as the sequence (P01854 whole entry) above
Sequence (P12319 26-257, chain 2 of 2, further chain): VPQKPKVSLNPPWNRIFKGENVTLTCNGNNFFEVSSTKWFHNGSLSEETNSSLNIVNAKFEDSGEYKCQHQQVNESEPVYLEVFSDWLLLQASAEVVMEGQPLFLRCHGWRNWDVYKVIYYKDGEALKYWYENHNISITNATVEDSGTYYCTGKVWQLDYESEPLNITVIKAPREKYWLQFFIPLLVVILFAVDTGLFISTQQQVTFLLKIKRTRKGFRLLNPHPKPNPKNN

Row | Binder | % CD63+ basophils at 20 µg/mL [%] | % CD63+ basophils at 100 µg/mL [%] | % of activated basophils (CCR3+CD63+) [%] | SI (Stimulation Index) at 20 µg/mL | SI (Stimulation Index) at 100 µg/mL
41 | B1 | 61.3 | 68.6 | 17 |  | 
42 | B37 | 3.7 | 3.1 |  | 1.48 | 1.24
43 | B38 | 3.5 | 4.8 |  | 1.4 | 1.92
44 | B2 | 4 | 4.3 | 4 |  | 

target: human immunoglobulin E (hIgE) (human) (UniProt P01854); test: SPR competition, hIgE over hFcεRIα chip, pH 6 (text: pH 5.5)

Row | Binder | IC50 [µg/mL]
45 | B1 | 3.2
46 | B2 | 7320

target: human immunoglobulin E (hIgE) (human) (UniProt P01854); test: competition ELISA, hIgE to coated hFcεRIα, pH 7.4

Row | Binder | IC50 [µg/mL]
47 | B1 | 0.0065
48 | B2 | 1.49
